Patent US20200216522A1 (DENALI THERAPEUTICS, published 2020)

T1: Peptide_082 (human)
T1 peptide: RHLSNVSSTGSIDMV

T2: Peptide_009 (human)
T2 peptide: AGLKESPLQTPTEDG

T3: Peptide_020 (human)
T3 peptide: EIPEGTTAEEAGIGD

T4: Peptide_063 (human)
T4 peptide: KPVDLSKVTSKCGSL

T5: Peptide_054 (human)
T5 peptide: LKHQPGGGKVQIINK

T6: Peptide_042 (human)
T6 peptide: PGSRSRTPSLPTPPT

T7: Peptide_086 (human)
T7 peptide: ATLADEVSASLAKQG

T8: Peptide_001 (human)
T8 peptide: MAEPRQEFEVMEDHA

T9: Peptide_027 (human)
T9 peptide: SKDGTGSDDKKAKGA

T10: Peptide_065 (human)
T10 peptide: KCGSLGNIHHKPGGG

T11: Peptide_080 (human)
T11 peptide: SPVVSGDTSPRHLSN

T12: Peptide_043 (human)
T12 peptide: RTPSLPTPPTREPKK

T13: Peptide_012 (human)
T13 peptide: SEEPGSETSDAKSTP

T14: Peptide_011 (human)
T14 peptide: PTEDGSEEPGSETSD

T15: Peptide_014 (human)
T15 peptide: AKSTPTAEDVTAPLV

T16: Peptide_041 (human)
T16 peptide: GSPGTPGSRSRTPSL

T17: Peptide_046 (human)
T17 peptide: VAVVRTPPKSPSSAK

T18: Peptide_040 (human)
T18 peptide: GYSSPGSPGTPGSRS

T19: process-control peptide
T19 construct: array control, not a Tau peptide
T19 peptide: GGSGGGSDYKDDDDK

T20: Peptide_002 (human)
T20 peptide: QEFEVMEDHAGTYGL

T21: Peptide_036 (human)
T21 peptide: PPAPKTPPSSGEPPK

T22: Peptide_061 (human)
T22 peptide: PGGGSVQIVYKPVDL

T23: Peptide_003 (human)
T23 peptide: MEDHAGTYGLGDRKD

T24: Peptide_066 (human)
T24 peptide: GNIHHKPGGGQVEVK

T25: Peptide_037 (human)
T25 peptide: TPPSSGEPPKSGDRS

T26: Peptide_060 (human)
T26 peptide: NIKHVPGGGSVQIVY

T27: Peptide_048 (human)
T27 peptide: PSSAKSRLQTAPVPM

T28: Peptide_044 (human)
T28 peptide: PTPPTREPKKVAVVR

T29: Peptide_024 (human)
T29 peptide: DEAAGHVTQARMVSK

T30: Peptide_025 (human)
T30 peptide: HVTQARMVSKSKDGT

T31: Peptide_006 (human)
T31 peptide: QGGYTMHQDQEGDTD

T32: Peptide_058 (human)
T32 peptide: NVQSKCGSKDNIKHV

T33: Peptide_071 (human)
T33 peptide: QSKIGSLDNITHVPG

T34: Peptide_087 (human)
T34 peptide: TLADEVSASLAKQGL

T35: Peptide_055 (human)
T35 peptide: GGGKVQIINKKLDLS

B1: chimeric IgG clone 1A5 (antibody, V domains shown)
VH: EVQLQQSGAELVRPGASVKLSCTASGFNIKDSLIHWVKQRPEQGLEWIGWIDPEDGETKYAPKFQDKATKTADTSSNTAYLQLSSLTSEDTAIYYCASGEWDYWGQGTSVTVSS
VL: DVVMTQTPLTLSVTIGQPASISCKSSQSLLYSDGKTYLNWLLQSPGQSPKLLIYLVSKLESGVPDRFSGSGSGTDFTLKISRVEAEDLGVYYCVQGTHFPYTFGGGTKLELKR
notes: mouse-human chimeric IgG from HEK293

Molecular target: T1, Peptide_082
Assay: peptide array
Procedure: (§1) Chimeric IgG antibodies were diluted to a concentration of 5 μg/mL in 3% bovine serum albumin in Tris-buffered saline (10 mM Tris, pH 7.5, 150 mM NaCl) supplemented with 0.05% Tween®20 (3% BSA-TBST). Diluted antibodies were allowed to bind to peptides printed onto slides for 2 hours at room temperature as described in the PepStar™ user manual (JPT Technologies). Following extensive washing (5×5 minutes with TBST), slides were incubated with secondary antibodies goat anti-human IgG, Alexa Fluor 568 conjugate, 1 μg/mL in 3% BSA-TBST) for 1 hour at room temperature. After extensive washing, (5×5 minutes with TBST, then 5×5 minutes with ultrapure water), slides were dried overnight and imaged using an Opera Phenix™ system in the 568 nm channel. Images were aligned to peptide array definition files using Galviewer software obtained from JPT Technologies and ImageJ software with control human IgG serving as landmarks.
(§2) Full-length human Tau (encoded by the microtubule-associated protein Tau isoform 2 gene (MAPT), amino acid sequence NCBI Reference Sequence No. NP_005901.2, SEQ ID NO: 1, variant designation “2N4R”) was divided into 15 amino acid peptides, offset by 5 amino acids (overlapping by 10 amino acids). Peptides were synthesized and covalently attached to silica slides in triplicate with a spot size of 0.5 mm (obtained from JPT Technologies, Berlin, Germany). Antibodies muIgG were diluted to a concentration of 30 μg/mL in 3% bovine serum albumin in Tris-buffered saline (10 mM Tris, pH 7.5, 150 mM NaCl) supplemented with 0.05% Tween® 20 (3% BSA-TBST). Diluted antibodies were allowed to bind to peptides printed onto slides for 2 hours at room temperature as described in the Pepstar™ user manual (JPT Technologies). Following extensive washing (5×5 min TBST), slides were incubated with secondary antibodies (donkey anti-mouse IgG, Alexafluor 647 conjugate, 5 μg/mL in 3% BSA-TBST) for 1 hour at room temperature. After extensive washing, (5×5 minutes TBST, 5×5 minutes ultrapure water), slides were dried under a stream of nitrogen and imaged on the Opera Phenix in the 647 nm channel. Images were aligned to peptide array definition file using Galviewer software obtained from JPT Technologies and ImageJ software with control mouse IgG serving as landmarks.

Binder	binding result
B1	no binding (tested: 5 ug/mL)

Molecular target: T2, Peptide_009
Assay: peptide array
Procedure: as §1, §2

Binder	binding result
B1	no binding (tested: 5 ug/mL)

Molecular target: T3, Peptide_020
Assay: peptide array
Procedure: as §1, §2

Binder	binding result
B1	no binding (tested: 5 ug/mL)

Molecular target: T4, Peptide_063
Assay: peptide array
Procedure: as §1, §2

Binder	binding result
B1	no binding (tested: 5 ug/mL)

Molecular target: T5, Peptide_054
Assay: peptide array
Procedure: as §1, §2

Binder	binding result
B1	no binding (tested: 5 ug/mL)

Molecular target: T6, Peptide_042
Assay: peptide array
Procedure: as §1, §2

Binder	binding result
B1	no binding (tested: 5 ug/mL)

Molecular target: T7, Peptide_086
Assay: peptide array
Procedure: as §1, §2

Binder	binding result
B1	no binding (tested: 5 ug/mL)

Molecular target: T8, Peptide_001
Assay: peptide array
Procedure: as §1, §2

Binder	binding result
B1	no binding (tested: 5 ug/mL)

Molecular target: T9, Peptide_027
Assay: peptide array
Procedure: as §1, §2

Binder	binding result
B1	no binding (tested: 5 ug/mL)

Molecular target: T10, Peptide_065
Assay: peptide array
Procedure: as §1, §2

Binder	binding result
B1	no binding (tested: 5 ug/mL)

Molecular target: T11, Peptide_080
Assay: peptide array
Procedure: as §1, §2

Binder	binding result
B1	no binding (tested: 5 ug/mL)

Molecular target: T12, Peptide_043
Assay: peptide array
Procedure: as §1, §2

Binder	binding result
B1	no binding (tested: 5 ug/mL)

Molecular target: T13, Peptide_012
Assay: peptide array
Procedure: as §1, §2

Binder	binding result
B1	no binding (tested: 5 ug/mL)

Molecular target: T14, Peptide_011
Assay: peptide array
Procedure: as §1, §2

Binder	binding result
B1	no binding (tested: 5 ug/mL)

Molecular target: T15, Peptide_014
Assay: peptide array
Procedure: as §1, §2

Binder	binding result
B1	no binding (tested: 5 ug/mL)

Molecular target: T16, Peptide_041
Assay: peptide array
Procedure: as §1, §2

Binder	binding result
B1	no binding (tested: 5 ug/mL)

Molecular target: T17, Peptide_046
Assay: peptide array
Procedure: as §1, §2

Binder	binding result
B1	no binding (tested: 5 ug/mL)

Molecular target: T18, Peptide_040
Assay: peptide array
Procedure: as §1, §2

Binder	binding result
B1	no binding (tested: 5 ug/mL)

Molecular target: T19, process-control peptide
Assay: peptide array
Procedure: as §1, §2

Binder	binding result
B1	no binding (tested: 5 ug/mL)

Molecular target: T20, Peptide_002
Assay: peptide array
Procedure: as §1, §2

Binder	binding result
B1	no binding (tested: 5 ug/mL)

Molecular target: T21, Peptide_036
Assay: peptide array
Procedure: as §1, §2

Binder	binding result
B1	no binding (tested: 5 ug/mL)

Molecular target: T22, Peptide_061
Assay: peptide array
Procedure: as §1, §2

Binder	binding result
B1	no binding (tested: 5 ug/mL)

Molecular target: T23, Peptide_003
Assay: peptide array
Procedure: as §1, §2

Binder	binding result
B1	no binding (tested: 5 ug/mL)

Molecular target: T24, Peptide_066
Assay: peptide array
Procedure: as §1, §2

Binder	binding result
B1	no binding (tested: 5 ug/mL)

Molecular target: T25, Peptide_037
Assay: peptide array
Procedure: as §1, §2

Binder	binding result
B1	no binding (tested: 5 ug/mL)

Molecular target: T26, Peptide_060
Assay: peptide array
Procedure: as §1, §2

Binder	binding result
B1	no binding (tested: 5 ug/mL)

Molecular target: T27, Peptide_048
Assay: peptide array
Procedure: as §1, §2

Binder	binding result
B1	no binding (tested: 5 ug/mL)

Molecular target: T28, Peptide_044
Assay: peptide array
Procedure: as §1, §2

Binder	binding result
B1	no binding (tested: 5 ug/mL)

Molecular target: T29, Peptide_024
Assay: peptide array
Procedure: as §1, §2

Binder	binding result
B1	no binding (tested: 5 ug/mL)

Molecular target: T30, Peptide_025
Assay: peptide array
Procedure: as §1, §2

Binder	binding result
B1	no binding (tested: 5 ug/mL)

Molecular target: T31, Peptide_006
Assay: peptide array
Procedure: as §1, §2

Binder	binding result
B1	no binding (tested: 5 ug/mL)

Molecular target: T32, Peptide_058
Assay: peptide array
Procedure: as §1, §2

Binder	binding result
B1	no binding (tested: 5 ug/mL)

Molecular target: T33, Peptide_071
Assay: peptide array
Procedure: as §1, §2

Binder	binding result
B1	no binding (tested: 5 ug/mL)

Molecular target: T34, Peptide_087
Assay: peptide array
Procedure: as §1, §2

Binder	binding result
B1	no binding (tested: 5 ug/mL)

Molecular target: T35, Peptide_055
Assay: peptide array
Procedure: as §1, §2

Binder	binding result
B1	no binding (tested: 5 ug/mL)
